One block for each molecule: values may come before it. Where a SMILES comes first, the peptide text is derived from it. The star is where a group is joined. Cbz = O=C(OCc1ccccc1)*
What was measured:
XIAP [1] = assay: Co-immunoprecipitation of ARTS-XIAP complexes in COS-7 cells; format: cell-based, African Green Monkey
Protocol: (§1) Protein extracts were prepared with lysis buffer (150 mM NaCl, 50 mM Tris-HCl (pH 8), 1% NP-40, 0.5% deoxycholate acid) with protease inhibitors. Lysates containing equal amounts of total protein were pre-cleared overnight with 1 mg mouse IgG (Sigma) coupled with protein A/G-Sepharose mix (Amersham Biosciences) and the beads centrifuged. Supernatants were immuno-precipitated using 5 μl of anti-ARTS antibody for 4 h, anti-XIAP antibody, rabbit anti-myc antibody, or mouse IgG (negative control). Protein A/G Sepharose beads were added for 1 hour and washed four times with PBS. Antibodies against XIAP (as above), Myc (Santa Cruz), or anti-ARTS (NT) antibodies directed against the common N′ terminus of ARTS and H5 (ProSci Incorporated) were used for Western blot.

COS-7 cells = assay: Immunofluorescence of ARTS and XIAP localization in COS-7 cells; format: cell-based, African Green Monkey; conditions: COS-7 cells, 50 μM etoposide for 16 hour, with BOC
Protocol: Cells were fixed with 4% paraformaldehyde in PBS for 20 min at room temperature, washed with PBS, permeabilized with 0.5% Triton-X in PBS for 5 min, and incubated with primary antibodies for 2 hours at room temperature (rabbit polyclonal anti-ARTS (1:20,000; Sigma), monoclonal anti-ARTS, and/or monoclonal anti-XIAP (1:500; used in subsequent Examples). Cells were washed three times with PBS/0.1% Triton-X and incubated with FITC conjugated anti-mouse and Rhodamin^TX-conjugated anti-rabbit secondary antibodies (Jackson). Images were analyzed using a confocal laser microscope (Zeiss LSM 510). Mitochondria were visualized with MitoTracker® Red CMXRos (Molecular Probes/Invitrogen).
For caspase inhibition, we added […] of BOC-Asp(Ome)CH2F (Enzyme Systems Products) one hour prior to addition of the apoptotic agents.

XIAP [2] = assay: XIAP protein levels by Western blot in COS-7 cells; format: cell-based, African Green Monkey
Protocol: as §1
Stably transfected COS-7 pE-ARTS cells were generated using the pEF1-IRES vector (Hobbs S et al, Biochem Biophys Res Commun 252: 368-372, 1998). The construct contains an EF-1 promoter followed by a multi cloning site, an EMC (Encephalomyocarditis virus) internal ribosome entry sites (IRES), and a puromycin resistance gene. AU5-tagged ARTS was inserted into the XhoI site downstream of the EF-1 promoter. The construct was stably transfected into COS-7 cells. The cells were maintained in medium containing 4 μg/ml puromycin.
Cells were treated for 2 hours with […] of the proteasome inhibitor (MG132, Calbiochem) prior to induction of apoptotis.

GST-XIAP fusion protein = biological target: T1, GST-XIAP fusion protein (Homo sapiens (Human), UniProt P98170 1-497); assay: GST-XIAP pull-down from lysate of transfected COS-7 cells, Western blot with anti-AU5
T1 construct: also called pGEX-XIAP; not shown: glutathione-S-transferase (GST) of a pGEX vector
Protocol: FIG. 3. ARTS specifically binds XIAP in vitro. In vitro binding was tested using a GST pull-down assay. A-B. COS-7 cells were transiently transfected with myc-tagged XIAP. GST pull-down was performed using GST-ARTS and Western blot using anti-XIAP and (A) and anti myc (B). C. COS-7 cells were transiently transfected with AU5-ARTS, AU5-ARTSDC or AU5-H5. GST pull down was performed using GST-XIAP and Western blot with anti-AU5. Binding to glutathione beads alone served as a negative control.
Cells were lysed in RIPA buffer (150 mM NaCl, 50 mM Tris-HCl (pH 8), 1% NP-40, 0.1% SDS, 0.5% deoxycholate acid containing protease inhibitors (mini Complete, Roche)). Samples were divided into two tubes; one was rotated for 4 h at 4° C. with GST-ARTS fusion protein coupled with the glutathione beads, or GST-XIAP fusion protein. The second tube was incubated with glutathione beads alone (negative control). Samples were centrifuged at 4000-RPM at 4° C. for 4 minute and washed five times in lysis buffer, then boiled in sample buffer for 5 minutes to elute bound proteins Proteins were separated on 12.5% SDS-PAGE gel followed by Western blot analysis using monoclonal anti-ARTS antibody (Sigma), monoclonal anti-XIAP antibody (BD Transduction Laboratories) or monoclonal anti-myc antibody (Clontech). […]

[3] = biological target: T2, Myc epitope-tagged wild-type XIAP (Homo sapiens (Human), UniProt P98170 1-497); assay: co-IP with agarose-anti-myc beads from co-transfected COS-7 cells, Western blot
T2 construct: Expressed by transient transfection in COS-7 cells and used as cell lysate; The construct came from Dr. Colin S. Duckett; also called myc-tagged XIAP; mycXIAP
Protocol: FIG. 4. ARTS binding to XIAP is specific and related to its apoptotic function. A. In-vivo binding of ARTS to XIAP was tested using co-IP with anti-ARTS, anti-XIAP or mouse IgG as a negative control, followed by anti-XIAP Western blot. B. Lysates of COS-7 cells co-transfected with pcDNA-mycXIAP and AU5-ARTS, AU5-ARTSmGTP or H5 DC were co-immunoprecipitated using agarose-anti-myc beads, followed by Western blot analysis with rabbit anti-myc and anti-ARTS. […] COS-7 cells were transiently transfected with AU5-ARTS, AU5-ARTSmGTP, AU5-ARTSDC or AU5-PNUTL2, and percent apoptosis determined. […] P-values (Anova) were 0.03 for non-treated cells, compared to 0.000004 for 1 hr and 0.00001 for 3 hr STS treatment.
as §1, with “Antibodies against XIAP (as above), Myc (Santa Cruz), or anti-ARTS (NT) antibodies directed against the common N′ terminus of ARTS and H5 (ProSci Incorporated) were used for Western blot.” left out

T1 sequence (P98170 whole entry, the tested form may be a part): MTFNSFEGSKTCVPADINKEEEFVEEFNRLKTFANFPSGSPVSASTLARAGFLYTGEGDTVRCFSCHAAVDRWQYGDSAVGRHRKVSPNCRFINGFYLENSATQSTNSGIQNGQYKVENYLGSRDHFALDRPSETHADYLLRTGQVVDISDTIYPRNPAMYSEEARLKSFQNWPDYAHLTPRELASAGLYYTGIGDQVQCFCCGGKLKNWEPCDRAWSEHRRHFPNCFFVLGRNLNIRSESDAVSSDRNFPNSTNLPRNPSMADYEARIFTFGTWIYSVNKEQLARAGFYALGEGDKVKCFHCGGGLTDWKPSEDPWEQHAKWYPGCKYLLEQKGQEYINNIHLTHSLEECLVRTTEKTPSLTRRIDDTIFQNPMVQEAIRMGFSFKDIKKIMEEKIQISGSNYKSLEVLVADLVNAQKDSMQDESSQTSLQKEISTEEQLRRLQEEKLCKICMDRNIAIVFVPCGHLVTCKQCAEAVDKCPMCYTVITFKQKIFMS
T2 sequence (P98170 whole entry): as the sequence (P98170 whole entry, the tested form may be a part) above

Molecule: COC(=O)CC(NC(=O)OC(C)(C)C)C(=O)CF (stereo not drawn) [BOC, BOC-Asp(Ome)CH2F, reference compound]
formation of ARTS-XIAP complexes (XIAP [1]; COS-7 cells treated with staurosporine in the presence of caspase inhibitor BOC): did not inhibit, and in fact slightly increased
nuclear translocation of ARTS (COS-7 cells): nuclear translocation of ARTS was blocked
sensitivity of the reduction of XIAP protein to caspase inhibition (XIAP [2]; COS-7 cells treated with staurosporine with or without BOC): not sensitive

Molecule: CC(C)C[C@@H](C=O)NC(=O)[C@H](CC(C)C)NC(=O)[C@H](CC(C)C)NC(=O)OCc1ccccc1 [MG132, reference compound] (Cbz-Leu-Leu-Leu-aldehyde)
ARTS-induced reduction of XIAP levels (XIAP [2]; cells treated for 2 hours with 20 mM MG132 prior to induction of apoptosis, data not shown): blocked ARTS-induced reduction of XIAP levels

B3: ARTSmGTP: ARTS mutant, three amino acids (G K S with E N P) replaced at the GTP binding site (protein)
chain: MIKRFLEDTTDDGELSKFVKDFSGNASCHPPEAKTWASRPQVPEPRPQAPDLYDDDLEFRPPSRPQSSDNQQYFCAPAPLSPSARPRSPWGKLDPYDSSEDDKEYVGFATLPNQVHRKSVKKGFDFTLMVAGESGLENPTLVNSLFLTDLYRDRKLLGAEERIMQTVEITKHAVDIEEKGVRLRLTIVDTPGFGDAVNNTECWKPVAEYIDQQFEQYFRDESGLNRKNIQDNRVHCCLYFISPFGHGYGPSLRLLAPPGAVKGTGQEHQGQGCH
modifications: left off: small tags and cut ends
binding to XIAP in co-IP (XIAP [1]; COS-7 cells co-transfected with pcDNA-mycXIAP and AU5-tagged construct): Neither of these mutants bound to XIAP

B4: AU5-ARTS ΔC (other)
chain: MIKRFLEDTTDDGELSKFVKDFSGNASCHPPEAKTWASRPQVPEPRPQAPDLYDDDLEFRPPSRPQSSDNQQYFCAPAPLSPSARPRSPWGKLDPYDSSEDDKEYVGFATLPNQVHRKSVKKGFDFTLMVAGESGLGKSTLVNSLFLTDLYRDRKLLGAEERIMQTVEITKHAVDIEEKGVRLRLTIVDTPGFGDAVNNTECWKPV
notes: 1-206 is 274 minus 68; also called AU5-ARTSDC; not shown: AU5 tag at the N' terminus
binding result (GST-XIAP fusion protein): no binding

Now from value to molecule:

binding result (GST-XIAP fusion protein): no binding
binding result [3]: no binding
B1: AU5-H5 (other, human, UniProt O43236-1 1-478, looked up)
chain: MDRSLGWQGNSVPEDRTEAGIKRFLEDTTDDGELSKFVKDFSGNASCHPPEAKTWASRPQVPEPRPQAPDLYDDDLEFRPPSRPQSSDNQQYFCAPAPLSPSARPRSPWGKLDPYDSSEDDKEYVGFATLPNQVHRKSVKKGFDFTLMVAGESGLGKSTLVNSLFLTDLYRDRKLLGAEERIMQTVEITKHAVDIEEKGVRLRLTIVDTPGFGDAVNNTECWKPVAEYIDQQFEQYFRDESGLNRKNIQDNRVHCCLYFISPFGHGLRPLDVEFMKALHQRVNIVPILAKADTLTPPEVDHKKRKIREEIEHFGIKIYQFPDCDSDEDEDFKLQDQALKESIPFAVIGSNTVVEARGRRVRGRLYPWGIVEVENPGHCDFVKLRTMLVRTHMQDLKDVTRETHYENYRAQCIQSMTRLVVKERNRNKLTRESGTDFPIPAVPPGTDPETEKLIREKDEELRRMQEMLHKIQKQMKENY
notes: Expressed in transfected COS-7 cells; The construct came from Dr. Seong-Jin Kim; also called pEF1-AU5-H5; H5 septin protein; not shown: AU5 tag

binding result [3]: no binding
B2: AU5-ARTSmGTP (other)
chain: B3 chain
notes: not shown: AU5 tag at the N' terminus

Reference: US20050227302A1, “Induction of apoptosis via ARTS-IAP complexes” (priority 2004, published 2005)
